Laboratory results from paper PMC7393355, “A FRET-based screening method to detect potential inhibitors of the binding of CNNM3 to PRL2” (Scientific Reports, 2020).

B1: non-YPet-tagged CNNM3 CBS domain (domain or fragment, human, UniProt Q8NE01 301-452, looked up)
chain: YSDLSKGVLRCRTVEDVLTPLEDCFMLDASTVLDFGVLASIMQSGHTRIPVYEEERSNIVDMLYLKDLAFVDPEDCTPLSTITRFYNHPLHFVFNDTKLDAVLEEFKRGKSHLAIVQKVNNEGEGDPFYEVLGLVTLEDVIEEIIRSEILDE
notes: CBS domain of human CNNM3, XP_011509259.1, residues 301-452; Subcloned into pET28a; the limits 301-452 are printed for the CBS domain in the same paragraph; also called non-fluorescence-tagged CNNM3; CNNM3 CBS protein; source: E. coli Rosetta (DE3), purified (Ni-NTA, anion exchange)
B2: CNNM3 CBS domain (residues 301-452) with YPet at its C-terminus (domain or fragment, human, UniProt Q8NE01 301-452, looked up)
chain: B1 chain
notes: CBS domain of human CNNM3 (cyclin M3), XP_011509259.1, residues 301-452; GS linker between the CBS domain and YPet; pET22c derivative; Methods and discussion sometimes call it CNNM3 CBS-CyPet; also called CNNM3-YPet; CNNM3 CBS-YPet; source: E. coli Rosetta (DE3), purified (Ni-NTA, anion exchange); not shown: YPet, C-terminal, kept

What was measured:
[1] = biological target: T1, non-fluorescence protein-tagged PRL2 (human, UniProt Q12974-1 1-167); assay: ITC; cell 20 uM PRL2, syringe 200 uM CNNM3 CBS protein, 25 C, 20 mM Tris-HCl pH 7.0, 50 mM NaCl, 1 mM TCEP; conditions: both partners purified
T1 construct: human PRL2, NP_001356788.1, residues 1-167; Subcloned into pET28a; the limits 1-167 are printed for human PRL2 in the same paragraph; also called non-CyPet-tagged PRL2; source: E. coli Rosetta (DE3), purified (Ni-NTA, SEC)
T1 sequence (looked up): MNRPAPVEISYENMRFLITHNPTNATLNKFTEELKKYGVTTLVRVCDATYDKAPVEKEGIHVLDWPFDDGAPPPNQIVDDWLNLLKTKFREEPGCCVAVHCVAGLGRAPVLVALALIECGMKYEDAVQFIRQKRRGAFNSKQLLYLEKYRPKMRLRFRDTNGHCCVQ

[2] = biological target: T2, PRL2 (residues 1-167) with CyPet at its N-terminus (human, UniProt Q12974-1 1-167); assay: FRET or BRET; 30 nM CyPet-PRL2 mixed with serial dilutions of CNNM3 CBS-YPet (0-300 nM) in 96-well plates, TBS (50 mM Tris-HCl pH 8.0, 150 mM NaCl), R.T. 1 h, excitation 435 nm, emission 530 nm; conditions: both partners purified
T2 construct: human PRL2 (phosphatase of regenerating liver 2), NP_001356788.1, residues 1-167; GS linker between CyPet and PRL2; pET22c derivative; Methods and discussion sometimes call it YPet-PRL2; also called CyPet-PRL2; CyPet-PRL2 WT; source: E. coli Rosetta (DE3), purified (Ni-NTA, SEC); not shown: CyPet (monomeric mutation A206K), N-terminal, kept
T2 sequence (looked up): T1 sequence (looked up)

Binder | Kd [1] [nM] | Kd [2] [nM]
B1 | 15.2 ± 5 | –
B2 | – | 108 ± 16
